# Experiment: soluble on expression in E. coli; label from the status in PepcDB or PDB records
row,Sequence,soluble on expression in E. coli
1,MGSDKIHHHHHHMQSALWVSKTGLAAQDTKMTTIANNLANVNTTGFKRDRVAFNDLFYQVQRQPGGQVDELNQLPSGLQLGTGTRVAGTQKVFTTGDVHNTSQQLDLAIEGNGFFQVEEPNGDLAYTRDGQFYRSSEGMMVTSQGLPLVPNIVIPEDSTNITIATDGIVMATIAGDAEPQELGQITLINFTNPAGLEARGNNLYRETAASGVAVEGVAGDQALGGLRQGSLEGSNVNVVEEMVEMISTQRAYEMNAKVVSASDDMLKFLNQSV,not soluble
2,MGSDKIHHHHHHMQTDKIFYSLFQAFTSIFFAIIGEADINPSTYEFVSVELKETAFRIDGVFKPVNETTEEPLYFVEVQFQLDPKFYRRFFAEIFLYLRQNPSVNFWRAVVIYPQRIIEPDDQQPYRSILDSSQIQRIYLDELGTANENSLQLAIMQLIIASEAIAIDQGRQLIIQARQELTDEANKKQIVELIETILLYKFTNLSREEVAAMLGIDDEFKKTRMYQSIKEDGLEEGRQEGRQQGIQEGRQEGRLQAKLEAIPRLLALGLSVEQIASALDLSIEQVQQVTGN,not soluble
3,MGSDKIHHHHHHMQTFLKGKRVGYWLSEKKIKKLNFQAFAELCRKRGMEVVQLNLSRPIEEQGPLDVIIHKLTDVILEADQNDSQSLELVHRFQEYIDAHPETIVLDPLPAIRTLLDRSKSYELIRKIEAYMEDDRICSPPFMELTSLCGDDTMRLLEKNGLTFPFICKTRVAHGTNSHEMAIVFNQEGLNAIQPPCVVQNFINHNAVLYKVFVVGESYTVVQRPSLKNFSAGTSDRESIFFNSHNVSKPESSSVLTELDKIEGVFERPSDEVIRELSRALRQALGVSLFGIDIIINNQTGQHAVIDINAFPGYEGVSEFFTDLLNHIATVLQGQSTAMAATGDVAL,soluble
4,MGSDKIHHHHHHMQVIIVEDEKTLRFSPLADLKPVYDLVTGCFSLRQRFVEALGARQKLTWHLRRHIAPWFAEANPGSVVNRVLEDEVLLVNGRLICDAAVTQFIDARKIAPGEALIQNGNLLFCRTTAEPLHVLETVFPDTIDGMVLAGAFSCVEVSGFRLIENLWDPVAMHPAMMREDGAALALGRIEGEVHPSAILVNPSAITVEKGAEVKAGAVLDASDGFIYIGAGAVVEPVALLMENVYIAPGARVKSGARIYSNVCIGGGAKAGGEIEDSIMEPFSNKQHDGFLGHSYISSWCNLGAGTDTSDLKNNYSPVSIETAHGKMATGQQFLGLLMGEHSKCSIGTRFNTGTVVGISSNIFGNGMPAKYVPSFSWGDGNPGTARYEADKAVETARKVMARRKVEMSAAYEAMFRAVAGE,not soluble
5,MGSDKIHHHHHHMRAKELQDWFPEARISDQPVEKEGYLTLPLASQQWILLEEAGLSEREKQLVALLTQQEQARSLNPWYSYLVEGKGQAPQVFKKIQLVYCHLSYFQQENLASWLDMMRTLFPNCQTVLQVGAQDYVFVLQQDKYTSVRDILSDTIEAVEYDFGLRLSIMLGQVWSQTGHQALSDLIKAERDLFKTWWRQGHQGVHTFSQLYLWSMGERLVDLKPIKECLHQMILDQDQIQEIILSLWENSAVLTKTAQQLYLHRNSLQYKIDKWEELTGLQLKELTDLTLCYQLILGSLSTIVGL,not soluble
6,MGSDKIHHHHHHMRASVLSDWLAQRLDRGNGQPIYRQLHRLLQQAILTRELPPGSKVPSSRLLAQELGIGRNTVTQVYEQLVLEGYVSSATGRGTFVADSAPDEIVGVPDAAAPDTSAESSPQQAKRALSTRGARLIAGAGVSKRQWGAFMPGVPDVTKFPARVWSRLHNKYWRRLRPDLLTYAPGGGLASLRHALADYLRTSRSVRCTPEQIIITTGIHQSVDLAVRLLSDPGDVIWTEDPCYWGVRSVLHVSGLQSRPIAVDEEGINPSADDLAQPPKLMLVTPSHQYPLGMVMSLARRRMLLEYARQNQCWIIEDDYDSEYRYGSRPLASLQGLDTSGQVIYVGSFGKTLFPGLRIGYLVVPEALAESFATASAELYREGQLLQQAMLAEFIAEGHFTSHIRRMRTLYGQRRQTLLDAAAHRYGDALPAVGGDAGLHLVMQLPEGSDDRQVAATALERNIVVRPLSGYYAQPSLAPSGLLIGYACVPDEEIAPAFNTLADAIDVTLPEFA,not soluble
7,MGSDKIHHHHHHMRATLKIAEPPVVSPSEDELRELENLYCSHGDTVHYTDKPKFFEGCEGSFVYDASQTPFLDLQMWYSAVNFGYRNERLNNAAHRQLDQLPQVASQYLHREKVELAALIARDAEQKFGHKGRVHFNVGGSQAVEDSLKLVRNFTGGKSLMFAFEGGYHGRTLGASAITSSYRYRRRYGHFSDRAQFIEFPYHFRGPKGMSKEEYGEVCVQKFARLFESEYNGVWDPKAGKSEYAAFYVEPIQGTGGYVIPPMNFFTGLKKVLDDHGILLVVDEIQMGVYRTGKLWSIEHFGVSPDVLVFGKAITNGLNPLSGIWAREEMINPTIFPPGSTHSTFASNPMGTAVALETMKMVGEGDFGASVMEKGARFLDGLKVLEKRHAIVGDVDGLGLALRMEICKEDGFTPDKATLDWMSDEGMKGDMVVDGKTYGLVLDVGGYHKNVITLAPNLMISNSEIDLALTLLDQLLTRAARR,not soluble
8,MGSDKIHHHHHHMRDRTVEIMWQAIDALDFSRIKAKLSHQKQVQWTPESLESAEAGYRQFLKMAAKYPGVPAVPSEQVDAFWHAHILDTRRYASDCVNIFGHVLHHDPYVGIDGPEDEARLFEMAAQSDVLSMREFGSPLTSASYFAQAAADEPAYCAREATAAEPAYCARMAKGPSYCARMGKALEPAYCAREATANEVVKRDHAAGGQAAYCALTLSQPASC,not soluble
9,MGSDKIHHHHHHMRDTWRWTMTQNKRSGNRRTPTPELDSASLVPPTVPSVVDDVEGGKPNTVEFRATYSPLRVEFHPWANSHPEIDEEYLFLYWNDVLVDKKTFSKPIEPEELFILVPVDKLIEGPHRLHYEVTLYSDTHVSSRPLDIYIDKTPPLLPADDRLMLPDYVIREGVTEEYLAANGDKLVCTVPSFIGAEPGDVVKWFYSENGAGQEMVDMMTLTQEHIETLGPLGTSKPLELTFPGAFIRQSGNGTRYVRYEVQDRAGTQPQRALAVALESDLSLAPRELPPPRIKEAKGSDYQSTLEPGNAFDGVTFVIPDDADIRPNETVTVFWGQPGTLGGYSTSTPISPGALEYLIPSQYVPPHMSGRVELYYQIDKPDVPPSPSHYVTVRKIEGLPIVQCSDIRNRALNLRTLGESTTFTLESWPFRHTSQFVNAWIDGVESGNVTREIRLPIATALPVPSETGVMVLGSVTKTELLRLAINYQFRVSVEVSFDDKLSWLKFPDAAAQLEDKP,not soluble
10,MGSDKIHHHHHHMRGIVCVHKFCSRFSRTAYFTYGWMMNIELISLLKGNMGLTLTSELAADICVAAYRMETLAQSRDIAQIKPRYNGRIVFAVERIEDITEEIKHLHRTHWNETEGHRHRLPFQPDYETFIRYEQAGRYLLFTVRSEGKLLGNCAMYLDKSAHTQTLIATEDTLYLLPEARRGTTAKRFVRYVENAMKLLGVREINITVKTVNKAARFFRLLGYRHVENGLTKILEIENV,not soluble
11,MGSDKIHHHHHHMRICPVPRSAPAGCARIRCLRRCAVFGRSCPKLGLWSSGARTLSHPPCADVNWPNTLCAQHVACALRSHCLTLRAPHALLGRAVRKAGDLMTTAGFQSIDAVQSELSEAGYVCGRALATVVFLSTRLGRPLFLEGEAGVGKTEIAKALAAVTGRPLIRLQCYEGLDAASAVYEWNFAAQMMAIRMAESAGQSDREALQAELFSQDYLIARPLLQAMQPDARGTPILLIDELDRTDAPFEAFLLEALSDFQVTIPELGTIRAPEPPMVILTSNRTREVHDALKRRCLYHWVDYPDFDRELEILTAQVPTASEALSRQVVAFVQSLRTEDLFKKPGVAETIDWANCLLALDVVNLSPETIADTLGALLKYQDDIARLQGSEAKRLLDEARSLLQEH,not soluble
12,MGSDKIHHHHHHMRIIETIEEMKKFSEEMREKKKTIGFVPTMGYLHEGHLSLVRRARAENDVVVVSIFVNPTQFGPNEDYERYPRDFERDRKLLEKENVDCIFHPSVEEMYPPDFSTYVEETKLSKHLCGRSRPGHFRGVCTVVTKLFNIVKPHRAYFGQKDAQQFRVLRRMVRDLNMDVEMIECPIVREPDGLAMSSRNVYLSPEERQQALSLYQSLKIAENLYLNGERDAEKIKEEMIKHLSRFDKVKIDYVEIVDEETLEPVEKIDRKVIVAVAAWVGNARLIDNTILG,not soluble
13,MGSDKIHHHHHHMRIQQLHYIIKIVETGSMNEAAKQLFITQPSLSNAVRDLEREMGIEIFIRNPKGITLTKDGVEFLSYARQVVEQTALLEERYKSQGHTRELFSVSAQHYAFVVNAFVSLLKETDMTRYELFLRETRTYEIIDDVKNFRSEIGVLFLNSYNHDVLTKMFDDNHLTYTSLFKAHPHIFVSKDNPLAKHQSVSLSDLEDFPYLSYDQGIHNSFYFSEEIMSQISHKKSIVVSDRATLFNLMIGLDGYTIATGILNSNLNGDNIVSIPLEVDDEIDIIYLKHEKANLSKMGEKFIDYLLEEVKFDK,not soluble
14,MGSDKIHHHHHHMRIYSFYNENARRETLEEHVATALKLLDSAENSKLVKYGKKLSPEFERAVKLAIIFHDTGKVFFQIKKGYGYMSFRGHEYFSTYIFDVFARRLIKSEIENYEALSELRKICNFSIFFHHHAMNIRMREPEAGSNIKAGLKLLDVLYSEVKRFLEDKEKKALKAALEEVKEKGTANLTGYVKGEIVREVWRNAMDSSKLKRLCYLNLLVLIAADYSSAALNRGGNKTPFGRVVEEFSEFYLK,not soluble
15,MGSDKIHHHHHHMRKLPPLRALQVFEAAARHLHFSRAAEELCLTQSAVSHQVRGLEQHLGQTLFARRGRELALTPKGEQLFLAVQSALDGLDSLCRQLNEAESRELRLAVYSSFAVKWLIPRLGDFRRQHPGIKIHLEMVSGDPPLSDQVADMFICGEQHQRGFWQTLLRPERLIPVCSPALANALGEALVMPLRLDSLPLLSVDEADIGPDWARWAKSQAQTLTQAQLQSYSHVLLAIEAAIAGQGIALASDFIVEGDIAAGKLMALPWPALETGFGFHFCCRERRLKEPAMAAFAEWIQQQAAMAG,not soluble
16,MGSDKIHHHHHHMRKLYILGMILGMYATFSACNDEWKDELYTQMLSFKAPLGDNGLSEIYVRYQPDGTGIYQLPVIVSGSKSNSRNIDAKIAVDEDTLRILNQEKFPVGRQDLWYVPLAEQHYSFESNICHIPAGENIQLYPIHFNFNGLELDEKYVLPLTIEEDPSYVQNKYKGRYKALLGVNLFNDYSGTYNTTLMNIYIEGTTTDPAKVDTRLARVVDENTIFFYAGSTWVEDENRSRYKVFVEFEEGTEDEEGTIKGKLRLYGDEGEPGINIRPLGECKYEKRIIQHETIKYMERHLTTLELSYKYTDVTSNPDYPITYEVKGSMTMERQINPLIPDEDQAIEW,not soluble
17,MGSDKIHHHHHHMRKNRITEMLATASTIVLDGALATELEARGCDLTDPLWSAKVLVENPALIYQVHFDYFKAGAQCAITASYQATPQGFEARGYSEAESLALIAKSVQLAAQARDDYRRDNTQAGTLLVAGSVGPYGAYLADGSEYRGDYQLPQADMMAFHRPRIAALHEAGADLLACETLPSFAEIEALIALLAEFPQAQAWFSFTLRDSEHLSDGTPLRTVLERVNACSQVVAVGLNCIALEKVTPALMHLSSLTDLPLVVYPNSGEQYDAVTKTWSSAHDTACSLTAYLPEWQTAGARLIGGCCRTTPADIAGIARCCQQ,not soluble
